Assay results taken from PMC3305660, “Regulatory interactions for iron homeostasis in Aspergillus fumigatus inferred by a Systems Biology approach”.

T1: SrbA161-267 (bHLHZ DNA-binding domain) (Aspergillus fumigatus, UniProt Q4WIN1 161-267)
T1 sequence: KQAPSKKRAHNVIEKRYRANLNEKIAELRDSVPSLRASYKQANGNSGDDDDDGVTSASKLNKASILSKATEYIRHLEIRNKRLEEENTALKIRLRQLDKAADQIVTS

B1: hapXpmm11 (hapX -774 to -783) (dsDNA)
DNA 1: GCCTTTGAATGGGAGGATTCTTTATT
DNA 2: AATAAAGAATCCTCCCATTCAAAGGC
B2: hemApmm11 (hemA -527 to -518) (dsDNA)
DNA 1: TCCCCAGTATCGGATCATACGGCTAC
DNA 2: GTAGCCGTATGATCCGATACTGGGGA
B3: hemApmm12 (hemA -338 to -347) (dsDNA)
DNA 1: CTGAGGCAATGAGGCGATGAGGCAAC
DNA 2: GTTGCCTCATCGCCTCATTGCCTCAG
B4: hapXpmm12 (hapX -1340 to -1331) (dsDNA)
DNA 1: CAGATAAGATCAGATGATGAAGGGAT
DNA 2: ATCCCTTCATCATCTGATCTTATCTG
B5: srbApmm0 (srbA -735 to -726) (dsDNA)
DNA 1: TTCCCGCGATCATACGATGTGCTCCG
DNA 2: CGGAGCACATCGTATGATCGCGGGAA
B6: srbApmm0mut (srbA* mutated site) (dsDNA)
DNA 1: TTCCCGCGATATAACATAGTGCTCCG
DNA 2: CGGAGCACTATGTTATATCGCGGGAA

The binders below were run against T1, SrbA161-267 (bHLHZ DNA-binding domain) (assay: SPR; SPR kinetics on immobilized biotinylated DNA duplexes; buffer, salt, pH and temperature not given in the material (details in Additional file 2)). Settings: protein: recombinant; chain copies: 2; label: 5' biotin on strand 1; blunt.
B1 was tested, and the Kd was 282 ± 5.1 nM. B2 gave a Kd of 4.18 ± 0.41 nM. With B3 the Kd was 35.7 ± 0.52 nM. Binder B4 has a Kd of 4.64 ± 0.03 nM. Work on B5 yielded a Kd of 0.63 ± 0.04 nM. B6 gave a Kd of 386 ± 7.3 nM.
